One assay addresses b-His6-BAK_(16-186) (UniProt Q16611).
UniProt Q16611, sequence (Q16611 16-186): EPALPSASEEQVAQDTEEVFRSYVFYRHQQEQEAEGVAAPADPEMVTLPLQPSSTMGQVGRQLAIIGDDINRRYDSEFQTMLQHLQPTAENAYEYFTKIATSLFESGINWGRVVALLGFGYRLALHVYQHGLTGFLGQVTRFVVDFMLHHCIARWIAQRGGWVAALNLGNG
Test: not given
One may read the Kd as a measure of binding affinity in units of concentration. Read a high Kd as a looser complex. BNIP5 BH3 peptide, 5-FAM labelled registered a Kd of 0.424 µM.

Another assay has the same target. In words: BLI. Background: Biolayer interferometry detects binding as a change in optical thickness at a sensor tip.
One may read the koff as a measure of how fast the partners let go of each other. With His6-SUMO-BNIP5 BH3 (peptide), the koff was 0.16 s⁻¹.

Another assay shares this target. Description: fluorescence polarisation. For orientation: Polarisation of emitted light reports the rotation of a fluorescent probe.
BNIP5 BH3 peptide, 5-FAM labelled showed a Kd of 0.4 µM.
Take CASP3 BH3 peptide, 5-FAM labelled: the Kd is greater than 20 µM.
Substance NBEAL2 BH3 peptide, 5-FAM labelled showed a Kd greater than 20 µM.
As for PXT1 BH3 peptide, 5-FAM labelled, the Kd turned out to be 11 µM.
The same measure, in the same setting: the same measure for SLC19A1 BH3 peptide, 5-FAM labelled: greater than 20 µM.
The same measure, in the same setting: with SPNS1 BH3 peptide, 5-FAM labelled the figure was greater than 20 µM; with TERT BH3 peptide, 5-FAM labelled, greater than 20 µM; with TRIM58 BH3 peptide, 5-FAM labelled, greater than 20 µM.
Still for that read-out and setting: with TRPM7 BH3 peptide, 5-FAM labelled the figure was greater than 20 µM.

Values taken from paper doi:10.1101/2022.05.07.491048.
